Among the data in patent publication US6528270 are percent of the BCR-ABL kinase available in the cell complexed with GRB-2 values, retold here.

For the experiment, the target named is BCR-ABL kinase available in the cell (the BCR-ABL expressing cells). In words: 35S-methionine labelling, immunoprecipitation with anti-ABL or anti-GRB-2 antibodies.

Regarding “GRB-2 (form and cells not named in the sentence) (from UniProt P62993 1-217)”, the percent of the BCR-ABL kinase available in the cell complexed with GRB-2 lay in the range of 50 to 90%.
